Laboratory results taken from US12703739 (VANDERBILT UNIVERSITY, dated 2026).

Columns and labels:
Experiment in all cases: cell-based or functional assay
Gn of RVFV-MP-12 = Gn of RVFV-MP-12 (Rift Valley Fever Virus strain MP-12)
Gn of RVFV-ZH501 = Gn of RVFV-ZH501 (Rift Valley Fever Virus strain ZH501)
Gn of RVFV-SA51 = Gn of RVFV-SA51 (Rift Valley Fever Virus strain SA51)
Gc of RVFV-MP-12 = Gc of RVFV-MP-12 (Rift Valley Fever Virus strain MP-12)
Gc of RVFV-ZH501 = Gc of RVFV-ZH501 (Rift Valley Fever Virus strain ZH501)
Gc of RVFV-SA51 = Gc of RVFV-SA51 (Rift Valley Fever Virus strain SA51)

Binder	IC50 (ng/ml), neutralization of RVFV-MP-12 (Gn of RVFV-MP-12)	Fold-Change ZH501/MP-12 (ratio of neutralization IC50s) (Gn of RVFV-ZH501)	IC50 (ng/ml), neutralization of RVFV-ZH501 (Gn of RVFV-ZH501)	IC50 (ng/ml), neutralization of RVFV-SA51 (Gn of RVFV-SA51)	IC50 (ng/ml), neutralization of RVFV-MP-12 (Gc of RVFV-MP-12)	Fold-Change ZH501/MP-12 (ratio of neutralization IC50s) (Gc of RVFV-ZH501)	IC50 (ng/ml), neutralization of RVFV-ZH501 (Gc of RVFV-ZH501)	IC50 (ng/ml), neutralization of RVFV-SA51 (Gc of RVFV-SA51)
RVFV-379 (antibody, V domains shown) VH: QVQLQESGPGLVKPSQTLSLTCTVSGDSISGGDYYWSWIRRPAGEGLEWIGRVHTTGSTDYNPSLRTRVTISIDTSKNHFFLKMTSVTAADTAVYYCAREGDYSAWFDPWGQGALVTVSS VL: DIQMTQSPSSLSASIGDRVTITCRASQHIESFLNWYQQKPGKAPKLLIYIASTLQGGVPSRFSGRGFGTDFTLTINSLQPEDFATYYCQQSYTISPITFGQGTRLEIK	1.3 ng/mL	3.5 fold	4.57 ng/mL	13 ng/mL				
RVFV-429 (antibody, V domains shown) VH: QVQLVQSGAEVKKPGSSVKVSCRASGGTFSSYTISWVRQAPGQGLEWMGGIIPILGLTKFAQKFQDRVTITADISATTTYMELSSLTSEDTAVYYCARNGEQLEWSYYYGMDVWGQGTTVTVSS VL: not shown	0.9 ng/mL	5.1 fold	4.57 ng/mL	4.57 ng/mL				
RVFV-401 (antibody, V domains shown) VH: QITFKESGPTLVKPTQTLTLTCTFSGFSLSTSGVGVGWIRQPPGKALEWLALLYWNDDKRYTPSLRSRLTITKDTSKNQVVLTMTDMDPVDTATYYCARKPRDDFLRLTMMGGGDYFDYWGQGTLVTVSS VL: SYELTQPPSVSVSPGQTARITCSGDALPDQYAYWYQQKPGQAPVLVLYKDNERPSGIPERFSGSTSGTTVTLTISGVQAEDEADYYCQSADTSTAYHVIFGGGTKLTVL	2120 ng/mL	0.2 fold	370 ng/mL	1110 ng/mL				
RVFV-226 (antibody, V domains shown) VH: EVQLVESGGGLVQPGRSLRLSCAASGFTFDDYAMHWVRQAPGKGLEWVSGISWNSGSIGYVDSVKGRFTISRDNAKNSLYLQMNSLRAEDTALYYCAKGLVGAIHDAFDIWGQGTMVTVSS VL: not shown	7690 ng/mL	1.3 fold	10000 ng/mL	3330 ng/mL				
RVFV-326 (antibody, V domains shown) VH: EAQLVESGGGLVKPGGSLRLSCAASGFSFSYAWMSWVRRLPGKGLEWVGRIKGKADGETTDYAAPVKGRFTISRDDSKTTVYLQMNTLKIEDTGVYYCTTDIGDFYDSIGYSYTDYWGQGTLVTVSS VL: EIVLTQSPATLSLSPGERATLSCRASQSVSSYLAWYQQKPGQAPRLLIYDASNRATGIPVRFSGSGSGTDFTLTISSLEPEDFALYYCQQRSDWPPTFGQGTKVEIK					70 ng/mL	15.9 fold	1110 ng/mL	370 ng/mL
RVFV-121 (antibody, V domains shown) VH: QMQLQESGPGLVKPSGTLSLTCAVSGDSISTSTWWSWVRQSPGKGLEWIGEIYHSESTNYNPSLKSRVSLSLDKSKNQLSLRLSSVTAADTGVYYCARGSLVFDYWGQGAQVVVSS VL: EIVMTQSPATLSVSPGERATLSCRASQSVSSNLAWYQQKPGQAPRLLIYAASTRATGIPARFSGSGSGTEFTLTISSLQSEDFAVYYCQQFNNWPRTFGQGTKVEIK					35 ng/mL	31.7 fold	1110 ng/mL	1110 ng/mL
RVFV-405 (antibody, V domains shown) VH: EVQLVESGGGLVQPGGSLRLSCAASGFTFSSFEMNWVRQAPGKGLEWVSYISRSGTTKHYADSVKGRFAISRDDAKNSLYLQMNSLRAEDTAVYYCARGGARVLQAPLDYWGQGTLVTVSS VL: SYELTQPPSVSVAPGETARITCGGTNIGNKSVRWYQQKPGQAPVLVIYYDNDRPSGIPERFSGSNSGNTATLTISRVEAGDEADYYCQVWDNSSDHAVFGGGTKLTVL	30000 ng/mL	1 fold	30000 ng/mL	30000 ng/mL				
RVFV-426 (antibody, V domains shown) VH: QVQLQESGPGLLKPSQTLSLTCGVSGDSITSTGDSWTWIRQPPGKGLEWIGYIYYSGSAYYNPSLKSRVTISVDTSKNQFSLRLRSVTAADTAVYYCARALEYGAGSWAAAFWGQGILVTVSS VL: SYEVTQPPSVSVSPGQTASITCSGDKLVERYVSWYQQKPGQSPLLVIYHDIKRPSGIPERFSGSNSGNTATLTISGTQPMDEADYYCQAWDSSTVLFGGGTKLTVL	9.1 ng/mL	4.5 fold	41 ng/mL	120 ng/mL				
RVFV-381 (antibody, V domains shown) VH: QEQLVESGGGVVQPGRSLRLSCAASGFTLRGYGIYWVRQAPGKGLEWVAVISHDGKNESYTDSVKGRFSISRDKSKNTVFLQMNSLTTQDTSVYYCARWTEGSEEFYYHGLDVWGQGTTVTVSP VL: SYELTQPPSVSVSPGQTARITCSGHLLPKQYAYWYQQKPGQAPTLVIYADYNRASGIPERFSGASSGTTVTLTITGVKAEDQADYYCQSIDNRFHYPMIFGGGTKLTVL	4440 ng/mL	2.3 fold	10000 ng/mL	10000 ng/mL				
RVFV-436 (antibody, V domains shown) VH: QVQLHESGPGLVKPSETLSLTCGVSGYTISSDYYWGWIRQPPGKGLEWIGSIYQNGHTYYNPSLKSRVTISVDTSKNQFSLELSSVTAADTAVYYCARRGDCGADCYHFDYWGRGTAVTVSS VL: SYEVTQPLSVSVSPGQTASITCSGEKLENKYVSWYQQKPGQSPVLVMYQDFKRPSGIPERFSGSNSGNTATLTISGTQAMDEADYYCQAWDRSTFYVFGTGTKVTVVG	2.5 ng/mL	1.8 fold	4.57 ng/mL	4.57 ng/mL				
RVFV-296 (antibody, V domains shown) VH: QVQLVQSGSELKKSGASVKVSCRASGYTFTTYVMNWVRQAPGQGLEWMGWINTNTGNPTYAQGFTGRFVFSLDTSVSTAYLQINSLKAEDTAVYYCAREYNSFDYWGQGTLVTVSS VL: QSVLTQPPSVSGAPGQRVTISCTGSSSNIGAGYDVHWYQQLPGTAPKLLIYDNNNRPSGVPDRFSGSRSGTSTSLAITGLQAEDEADYYCQSYDFRLSGSVFGGGTKVTVL	638 ng/mL	0.2 fold	120 ng/mL	120 ng/mL				
RVFV-249 (antibody, V domains shown) VH: QVLLVQSEAEVRKPGASVKISCKTSGYTFTTYFMHWVRQAPGQGLEWVAIVDPSTGNTGYAQRFQGRVTVTRDTSTGTLFMELTSLTTEDTAMYYCGRDRGSRAVDSWGQGTLVTVFS VL: QSVLTQPPSVSGAPGQRVTISCSGSSSNVGPNTVSWYQQLPGVAPKLLIYRNNQRPSGVPDRFSGSKFGTSASLVIGGLQSEDEADYYCAAWDDSLNGHMVFGGGTKVAVL					6790 ng/mL	4.4 fold	30000 ng/mL	30000 ng/mL
RVFV-250 (antibody, V domains shown) VH: QVQLQESGPGLAKPSETLSLTCTVSGGSISSYFWSWIRQPAGKGLEWIGRIHTTGSTNYNPSLKNRVIMSVDTSKNQFSLNLSSVTAADTAVYYCAREGTAFDIWGQGTMVTVSS VL: SYELTQSPSVSVSPGQTASIPCSGDKLGDKYACWYQQKPGQSPVLVIYQDTKRPSGIPERFSGSNSGNTATLTISETQAMDEADYYCQAWDSSTPWVFGGGTKLTVL					51 ng/mL	2.4 fold	120 ng/mL	120 ng/mL
